# Numbering of substitutions follows the chain as printed.
# B1: J1-183D chimeric: chimeric antibody with unaltered CDRs: J1-183D_VL + J1-183D_VH (antibody, V domains shown)
# VH: QVQLQQPGTELVRPGVSVKISCKVSGYAFTDYAIHWIMQSHAKSLEWIGIINTYYGDSKYNQKFKDKATMTVDKSSNTAYMELARLTSEDSAIYYCARGYDGFAYWGQGTLVTVSS
# VL: DIQLTQSPASLSASVGETVTFTCRTSENIYSYLTWYQQKQGKSPQLLVYNAKILAAGVPSRFSGYGSGTQFSLKINSLQPEDFGTYYCQHHYDIPWTFGGGTKLEIK
# B2: J1-65D variant 1: humanised/de-immunised J1-65D: J1-65D_VL_1 + J1-65D_VH_1 (antibody, V domains shown)
# VH: QVQLVQSGAELKKPGSSVKVSCKASGYTFTDYEMHWVRQAPGQGLEWMGAIQPGGGGTAYNQKFKGRVTLTADKSTSTAYMELSSLRSEDTAVYYCTRRGYDDYPFAYWGQGTLVTVSSASTKGP
# VL: DIQMTQSPSSLSASVGDRVTITCRASGNIHNYLAWYQQKPGKAPKLLIYNAKTLADDVPSRFSGSGSGTDYTLTISSLQPEDFATYYCQHFWSAPWTFGGGTKLEIKRT
# B3: J1-65D variant 7: humanised/de-immunised J1-65D: J1-65D_VL_2 + J1-65D_VH_3 (antibody, V domains shown)
# VH: B2 VH with L11V, N61A, K65Q
# VL: B2 VL with D57A
# B4: J1-65D variant 6: humanised/de-immunised J1-65D: J1-65D_VL_2 + J1-65D_VH_2 (antibody, V domains shown)
# VH: B2 VH with N61A
# VL: B2 VL with D57A
# B5: J1-65D variant 2: humanised/de-immunised J1-65D: J1-65D_VL_1 + J1-65D_VH_2 (antibody, V domains shown)
# VH: B2 VH with N61A
# VL: B2 VL
# B6: J1-65D variant 10: humanised/de-immunised J1-65D: J1-65D_VL_3 + J1-65D_VH_2 (antibody, V domains shown)
# VH: B2 VH with N61A
# VL: B2 VL with D57A, G100Q
# B7: J1-65D variant 11: humanised/de-immunised J1-65D: J1-65D_VL_3 + J1-65D_VH_3 (antibody, V domains shown)
# VH: B2 VH with L11V, N61A, K65Q
# VL: B2 VL with D57A, G100Q
# B8: J1-65D variant 3: humanised/de-immunised J1-65D: J1-65D_VL_1 + J1-65D_VH_3 (antibody, V domains shown)
# VH: B2 VH with L11V, N61A, K65Q
# VL: B2 VL
# B9: J1-65D variant 13: humanised/de-immunised J1-65D: J1-65D_VL_4 + J1-65D_VH_1 (antibody, V domains shown)
# VH: QVQLVQSGAELKKPGSSVKVSCKASGYTFTDYEMHWVRQAPGQGLEWMGAIQPGGGGTAYNQKFKGRVTLTADKSTSTAYMELSSLRSEDTAVYYCTRRGYDDYPFAYWGQGTLVTVSS
# VL: DIQMTQSPSSLSASVGDRVTITCRASQGIHNYLAWYQQKPGKAPKLLIYNAKTLADAVPSRFSGSGSGTDYTLTISSLQPEDFATYYCQQFWSAPWTFGQGTKLEIK
# B10: J1-65D variant 16: humanised/de-immunised J1-65D: J1-65D_VL_4 + J1-65D_VH_4 (antibody, V domains shown)
# VH: B9 VH with L11V, N61A, K65Q, L70I
# VL: B9 VL
# B11: J1-65D variant 15: humanised/de-immunised J1-65D: J1-65D_VL_4 + J1-65D_VH_3 (antibody, V domains shown)
# VH: B9 VH with L11V, N61A, K65Q
# VL: B9 VL
# B12: J1-65D variant 14: humanised/de-immunised J1-65D: J1-65D_VL_4 + J1-65D_VH_2 (antibody, V domains shown)
# VH: B9 VH with N61A
# VL: B9 VL
# B13: J1-183D variant 2: humanised/de-immunised J1-183D: J1-183D_VL_1 + J1-183D_VH_2 (antibody, V domains shown)
# VH: QVQLVQSGAELKKPGASVKVSCKVSGYAFTDYAIHWIRQAPGQGLEWMGIINTYYGDSKYAQKFQGRVTMTVDTSTSTAYMELSSLRSEDTAVYYCARGYDGFAYWGQGTLVTVSSASTKGP
# VL: DIQMTQSPSSLSASVGDRVTITCRTSENIYSYLTWYQQKPGKAPKLLVYNAKILAAGVPSRFSGSGSGTDFTLTISSLQPEDFATYYCQHHYDIPWTFGGGTKLEIKRT
# System: not listed separately
# Test: Soluble aggregates of transiently expressed antibodies
# Format: physicochemical
# Settings: Protein A purified antibody
# Excerpt: The protein yield of these antibodies, their levels of soluble aggregates and their binding affinity to the immunogen (J1-DE3) are illustrated in (Table 6).
row,Molecule,% soluble aggregate
1,B1,1.41%
2,B2,0%
3,B3,0%
4,B4,0%
5,B5,0%
6,B6,0.59%
7,B7,1.00%
8,B8,1.67%
9,B9,2.82%
10,B10,5.60%
11,B11,5.29%
12,B12,6.61%
13,B13,3.58%

# Target: T1, N1 binding to cell surface expressed hJ1 (Homo sapiens, UniProt P78504)
# T1 construct: cell expressed full length human J1 (hJ1; HEK293 transfectants); expressed in transfected cells; host or cells: HEK293
# T1 sequence (P78504 34-1218): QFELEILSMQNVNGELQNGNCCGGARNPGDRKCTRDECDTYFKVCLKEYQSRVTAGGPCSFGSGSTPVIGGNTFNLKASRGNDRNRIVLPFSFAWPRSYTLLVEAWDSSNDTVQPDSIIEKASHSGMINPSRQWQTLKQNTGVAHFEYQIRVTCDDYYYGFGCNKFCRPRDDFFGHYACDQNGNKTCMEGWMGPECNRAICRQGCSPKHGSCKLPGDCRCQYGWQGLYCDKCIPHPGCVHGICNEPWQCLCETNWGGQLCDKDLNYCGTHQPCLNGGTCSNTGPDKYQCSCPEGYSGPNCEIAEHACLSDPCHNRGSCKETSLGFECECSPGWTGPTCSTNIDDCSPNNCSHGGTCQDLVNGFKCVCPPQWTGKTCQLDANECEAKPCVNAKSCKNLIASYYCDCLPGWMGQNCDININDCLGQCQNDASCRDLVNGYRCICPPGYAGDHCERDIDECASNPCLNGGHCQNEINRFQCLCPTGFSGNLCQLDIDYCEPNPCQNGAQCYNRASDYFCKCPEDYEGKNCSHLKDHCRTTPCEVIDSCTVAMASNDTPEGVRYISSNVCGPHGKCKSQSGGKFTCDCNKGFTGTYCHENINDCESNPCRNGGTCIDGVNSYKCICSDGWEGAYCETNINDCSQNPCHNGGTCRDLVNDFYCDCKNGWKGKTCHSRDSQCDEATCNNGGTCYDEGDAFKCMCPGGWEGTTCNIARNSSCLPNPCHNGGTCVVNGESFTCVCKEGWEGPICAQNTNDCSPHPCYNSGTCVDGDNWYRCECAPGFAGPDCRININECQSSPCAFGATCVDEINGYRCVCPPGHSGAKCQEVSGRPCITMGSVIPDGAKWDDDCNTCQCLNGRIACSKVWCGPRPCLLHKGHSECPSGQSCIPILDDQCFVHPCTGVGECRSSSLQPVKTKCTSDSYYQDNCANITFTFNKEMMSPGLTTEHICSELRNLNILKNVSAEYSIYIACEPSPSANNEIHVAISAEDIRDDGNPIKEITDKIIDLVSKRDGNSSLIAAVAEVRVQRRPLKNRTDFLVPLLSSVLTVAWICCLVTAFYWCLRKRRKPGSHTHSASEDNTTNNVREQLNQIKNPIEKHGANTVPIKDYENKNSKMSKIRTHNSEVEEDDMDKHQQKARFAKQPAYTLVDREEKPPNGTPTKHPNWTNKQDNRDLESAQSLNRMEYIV
# Test: Notch binding blocking assay (FACS): N1 EGF11-13 beads staining human J1-expressing cells
# Design: key: +: Complete blocking; X: No blocking
# Settings: final antibody concentration 0.2 μg/ml
# Procedure: To functionally identify mAbs with the capacity to disrupt the J1-N1 protein:protein interaction, hybridoma culture supernatants were tested in a FACS-based binding assay. Biotinylated soluble human N1 EGF11-13 recombinant protein was bound to avidin-coated beads and used to stain J1-expressing cells in the presence or absence of each mAb that recognised cell surface hJ1 by FACS. […] The four blocking antibodies of the invention were also able to block the binding of recombinant […] to a biotin-tagged J1 DSL-EGF3 recombinant protein in an ELISA assay (FIG. 1B). […] The four blocking mAbs of the invention were purified from serum-free culture supernatants and equal concentrations of purified antibodies were used to compare their activity in subsequent assays (unless hybridoma supernatant was specified). Sequence conservation across the DSL domain raised the possibility that the J1 mAbs may also be able to bind the Jagged 2 (J2) protein. Antibody binding specificity was initially tested by immunocytochemical labelling of cytospin samples of hJ1 and hJ2 transfectants (FIG. 2). All antibodies stained J1 transfectants but none stained the J2 transfected cells, and J2 expression in the same experiment was confirmed using a commercial anti-J2 antibody. The specificity of the purified mAbs was further investigated in mammalian cells transfected with hJ2, human Delta-like ligand 4 (hDLL4), or mJ1 (FIG. 3). Transfectants were FACS stained with 10 μg/ml of each of the four blocking mAbs.
# To test the blocking efficiencies of the J1 mAbs, purified mAbs were titrated to determine the concentration required to block recombinant N1 binding to cell surface expressed hJ1. Beads coated with a bacterially-expressed N1 EGF11-13 protein were used to stain the hJ1-expressing cells in the presence of various concentrations of mAbs.
# The FACS-based binding assay using biotinylated soluble human N1 EGF11-13 recombinant protein bound to avidin-coated fluorescent beads to stain J1-expressing cells was performed using a dilution series of each variant mAb to test their ability to block J1 binding to N1 by FACS (Table 7). […] Thus 12/16 J1-65D1 variants V1-12 and all J1-183D variants have the desired binding and blocking activity.
# Human N1 EGF11-13 (411-526) was expressed in E. coli, refolded in vitro and labelled with purple fluorescent avidin-coated beads (Spherotech) as previously described. HEK293 cells transfected with human J1 or B16F10 cells transfected with mouse J1 were stained with N1 fluorescent beads in the presence of J1 antibody supernatants or purified antibody (murine, chimeric or humanised) diluted in HBBS/10% FCS. Cells were washed and re-suspended in staining buffer before being analysed with a FACSCalibur and data analysis with CellQuest. HEK293 cells transfected with human Jagged 2 and B16F10 cells transfected with human and mouse DLL4 were stained similarly to test blocking specificity.
row,Blocking of Notch1 binding to cell surface Jagged 1,Molecule
1,X,B1
2,X,B2
3,X,B3
4,X,B4
5,X,B5
6,X,B6
7,X,B7
8,X,B8
9,X,B13

# Same assay, conditions: final antibody concentration 0.4 μg/ml
row,Blocking of Notch1 binding to cell surface Jagged 1,Molecule
1,+ (Complete blocking),B1
2,+ (Complete blocking),B2
3,+ (Complete blocking),B3
4,+ (Complete blocking),B4
5,+ (Complete blocking),B5
6,+ (Complete blocking),B6
7,+ (Complete blocking),B7
8,+ (Complete blocking),B8
9,+ (Complete blocking),B13

# Same assay, conditions: final antibody concentration 0.6 μg/ml
row,Blocking of Notch1 binding to cell surface Jagged 1,Molecule
1,+ (Complete blocking),B1
2,+ (Complete blocking),B2
3,+ (Complete blocking),B3
4,+ (Complete blocking),B4
5,+ (Complete blocking),B5
6,+ (Complete blocking),B6
7,+ (Complete blocking),B7
8,+ (Complete blocking),B8
9,+ (Complete blocking),B13

# Same assay, conditions: final antibody concentration 1.0 μg/ml
row,Blocking of Notch1 binding to cell surface Jagged 1,Molecule
1,+ (Complete blocking),B1
2,+ (Complete blocking),B2
3,+ (Complete blocking),B3
4,+ (Complete blocking),B4
5,+ (Complete blocking),B5
6,+ (Complete blocking),B6
7,+ (Complete blocking),B7
8,+ (Complete blocking),B8
9,X,B10
10,X,B11
11,X,B12
12,+ (Complete blocking),B13

# Same assay, conditions: final antibody concentration 2.0 μg/ml
row,Blocking of Notch1 binding to cell surface Jagged 1,Molecule
1,Partial,B9
2,Partial,B10
3,Partial,B11
4,Partial,B12

# Source: patent publication US9725518B2, “Antibodies that bind to Jagged 1” (Cancer Research Technology Limited, priority 2013, dated 2017)
